Publication PMC7828216, “Identification and Functional Analysis of Apoptotic Protease Activating Factor-1 (Apaf-1) from Spodoptera litura” (Insects, 2021)

B1: Sl-caspase5-CARD (caspase recruitment domain of Spodoptera litura caspase-5, 1-132aa) (domain or fragment, UniProt R4I520 1-132, looked up)
chain: MQREHRDAIQSNFSSLVERTDLDSVVTALYEKGVFSEQMIEPYRNNSELERDRKRRLYMDVTRRGPHAFAHLVDTLGELGYWDLARDLDPDSPFSFSSQQRSHPIPQPKPADNDNFRSLSTSNRPRAEPNRI
notes: Sl-caspase-5 of Spodoptera litura (a homologue of mammalian caspase-9; Dronc), GenBank JQ768051; caspase recruitment domain, residues 1-132; Cloned with Nde I and Xho I in pET-22b; also called caspase-5-CARD domain
B2: Sl-Apaf-1-CARD (caspase recruitment domain of Spodoptera litura apoptotic protease activating factor-1, 1-88aa) (domain or fragment, UniProt A0A7T6ZKB7 1-88, looked up)
chain: MDKHKRLLLQKYQQDIIDDLDVAYVYDELFAKHVISAEEVDRMFSLTTRIDQTRFLLDSLIRNGTNGTYQVFVDSLQKDYGWLWEKLA
notes: caspase recruitment domain, residues 1-88; Cloned with Nde I and Xho I in pET-22b; also called Sl-Af88; Sl-Apaf-1-CARD domain protein fragment

Tests used:
[1] = molecular target: B2; assay: ITC; Sl-Apaf-1-CARD at 50 µM, Sl-caspase-5-CARD at 450 µM; 10 mM HEPES, 100 mM NaCl, 2 mM DTT, pH 7.4; 20 °C; 20 injections; VP-ITC; which protein was in the cell is not said; conditions: both partners purified
[2] = molecular target: B1; assay: as above; conditions: both partners purified

dH [1] [kJ/mol] | stoichiometry N [1] | Ka [2] [M⁻¹] | Binder
-64.9 | 1 |  | B1
 |  | 1.28e+06 | B2
